The nature of this data set: label from the status in PepcDB records.
Regarding “MQSKAHALTFTVLPITQKTDQWSVKVSEAKNVKEFTRPHKGEYQVYSLGSQKYRGKSSYSGCAIVLEHHHHHH”, the protein production entry is “not failed”.

As to “MKGRIELGDVTPHNIKQLKRLNQVIFPVSYNDKFYKDVLEVGELAKLAYFNDIAVGAVCCRVDHSQNQKRLYIMTLGCLAPYRRLGIGTKMLNHVLNICEKDGTFDNIYLHVQISNESAIDFYQKFGFEIIETKKNYYKRIEPADAHVLQKSLRSPCAPPAGELQKAD”, the protein production entry was “failed”.

As to “MSLSFMIGYSWTQTEPGQVNHILDQFLSSMVREAGAVNYFVLPFPFSEDRSQIDIYRDLIRSGNVDGFVLSSINYNDPRVQFLLKQKFPFVAFGRSNPDWDFAWVDIDGTAGTRQAVEYLIGRGHRRIAILAWPEDSRVGNDRLQGYLEAMQTAQLPIETGYILRGEGTFEVGRAMTLHLLDLSPERRPTAIMTLNDTMAIGAMAAARERGLTIGTDLAIIGFDDAPMVQYLFPPLSSVRQPIAEAGRKCIELLVAIVEGREPEQKHILLQPSLIIRASEGLITITTDPNSSSVDKLAAALEHHHHHH”, the protein production entry is reported as “not failed”.

On to “EDYSCFIFRHFPQVQIHPHAQRAAQAAEAAAAQGQFWLMNDTLFDHQQRLENGYLVEYANDLGLDIPQFLKELAKQVHVDRIKKDIEGGLQSGVMAVPALFVNGILYRDCWNIKQLIATIIASSY”, for which the protein production entry was “failed”.

On to “MKQLSFNKLYFEGIKDAIPISIGYLPIGMAFGVLAKSMGIPYEISILMSLIIFAGASQFVGVNLIAIGTSSFEIVLTTFILNLRHFLMSSSLSQRIDYTKSKKFLSLISFGVTDETFAVASLKEELKLSPEFLFGLNFTAFFAWNFGTVLGIFLAESIPKEIQSSMGISLYVMFIGLLIPAVRRSTKVLKIFLVAVFISSALTWVPVFKFISTGWIIIITTIVASFIGAKFIHGDGDE”, for which the protein production result is reported as “failed”.

On to “MNKYFPLAKYKKEKMMFMKLLEGCYKVERLYIYSKRLCKQMEPKSQEEYNIARKQIKKTFDEGWTEADCGGRESCILEIPFVFWSSPNKSNCRRQPKRSYGKKLLYIPLNDLKDDIPYPNSSSEAGKVWKPQ”, for which the protein production result was “failed”.

Turning to “MEVIREQEFVNQYHYDARNLEWEEENGTPKTNFEVTFQLANRDEAAKVTSIVAVLQFVIVRDEFVISGVISQMAHIQGRLINEPSEFSQDEVENLAAPLLEIVKRLTYEVTEIALDRPGVTLEF”, the protein production result is on record as “not failed”.

For “MSMNDTYQPINCDDYDNLELACQHHLMLTLELKDGEKLQAKASDLVSRKNVEYLVVEAAGETRELRLDKITSFSHPEIGTVVVSES”, the protein production entry was “failed”.

“MLSFIIKRILWAIPTLFGVSIIVFMMVHLVPGDPALVILGEKANQAAIDALREQFGLNKPLIEQYFFFINNVLHGNFGTSIMTGEPVMHEFWQRFPATVELALIALFMALVLGISVGVLAAIKRYSVFDYSSMTFALAGISMPVFWLGLMLIYIFSVQLGWLPVFGRLSDVYYLDGPTGLYLIDSLIARDYGAFMDTIKHLILPSIVLATVSTAVIARMTRASMAEVSKEDYVRTAKAKGCSSFRVIFVHTLRNALIPVTTIAGLMLAGLLGGSMITETVFSWPGIGKWIVNALNQRDFPIIQSMSLIIAMMYIGANLLVDILYAFIDPRIRLS”: the protein production entry is listed as “failed”.

As to “MEDKPLGILRVHVKRGINLAIRDATTSDPYVVITLANQKLKTRVINNNCNPVWNEQLTLSIKDVNDPIRLTVFDKDRFSGDDKMGDAEIDFRPFLEAHQMELDFQKLPNGCAIKRIRPGRTNCLAEESSITWSNGKIMQEMILRLKNVECGEVELMLEWTDGPGCKGLGREGSKKTPWMPTKRLD”, the protein production result is on record as “failed”.

As to “MSQQFPDWQPQGLENNLLKLVPLAKADFDTLFEVASDPLIWEQHPTKDRYKKEVFQLFFDGALGGNTAFIIIDKATGRIIGSTRYYDYKPEQASIAIGYTFLNRDYWGGRYNRSAKKLLLDYAFHYVDTVYFHIGANNLRSQKAILNIGATKVGEVDFDYYGKKVLHYEYAITKADWLHTLKQQL”, the protein production result is given as “failed”.

Take “MKLGFIGFGEAASAIASGLRQAGAIDMAAYDAASAESWRPRAEELGVSCKASVAEVAGECDVIFSLVTAQAALEVAQQAGPHLCEGALYADFTSCSPAVKRAIGDVISRHRPSAQYAAVAVMSAVKPHGHRVPLVVDGDGARRFQAAFTLYGCRIEVLDGEVGGAALLKMCRSAVLKGLEALFLEALAAAEKMGLADRVLASLDASFPEHHLRDLALYLVERNLEHADRRAHELGEVAATLCSVGVEPLVAEAGYRRLTRVAQVRAALKQRPGDVRAWLRSLANAEDA”: the protein production entry is given as “not failed”.

“MAEIKHYQFNVVMTCSGCSGAVNKVLTKLEPDVSKIDISLEKQLVDVYTTLPYDFILEKIKKTGKEVRSGKQLAREVILAVHGMTCSACTNTINTQLRALKGVTKCDISLVTNECQVTYDNEVTADSIKEIIEDCGFDCEILRDS”: the protein production result is given as “not failed”.

As for “MTNQEQSGDGGRLAPRPVERPPVDPAAQRTFGRPAGVEGSFLGAGQYQDQGEYAPKDQPPDPVLAEAFGRPRGTSETLQRHPTDAGALEAERLGDEDVTDDPWRDPSAPVALGTPAQPPPPPVYVNAPTGKLGLREVLFGGRVSWIALLTLALVAVLIAFVGGWVGQKTAGTVQAFTTSKVTLETGDHPDPDAGRFEQVAAAVADSVVTIEAKSKTEGSQGSGVVVDGKGYIVTNNHVISEAATKPADFQITVVFNDGKEVPANLVGRDPKTDLAVLKVDNVDNLTVAKLGDSEKIRVGEEVIAAGAPLGLRSTVTHGIVSALHRPVPLSGDGSDTDTVIDGVQTDASINHGNSGGPLINMNAEVIGINTAGKSLSDSASGLGFAIPVNEVKEVVETLVKDGKVAHPTLLVNAVTVSNSVASGAQIKNVVENGPAGKAGMLENDVVVKVGDRKVADADEFVVAVRQLKIGQEAPIEVVRDGRPLTLMVTPIGDDQKAQ”, the protein production entry is reported as “failed”.

For the sequence “MTSRSDAGVFHVRALLLGVLYVCGSLLFVTSMLSKTTTLTNVSSNTCPTVRGVDQIIVLLVDALRPDFVLPALSPHYLDGVECSTVSARGVDGNVNGDRRSTLTYMEENLKRVAHPSHGFFFLSDTPTITAQRIKAITTGTTPAFLEVGTNLNTDEVQIDNILLQLRRRSILLGDDTWLNLFPDHQGNASFWKHTHALPPYNVSDFDTNDATVIADLMPLLLSETAEQAPDDYARLIIGHLLAVDHVGHRHHASHPAMYKKLSDINEMLRNVTKRLREERQTSMRTLLVVFGDHGMTNSGDHGGDSEGERDSFMYAELFESSRDSVHAPVNSSDKFQRKNNLTEKRWEDNIDEDLSRLKACRDVAGVHPGKLSAVHQVDLTPTLALLLGVPIPFSNVGRVIPEMVALSNPDVNMSASEECNWKQLTSYFDEAGLYIKPEWKDSNLSLRRRIAQMSHFARSIRMEIRRDGAFIGSSLCMVTALSLLRNGDIQQVICGRSVLGIGTLFLLVLRLLAVFANSFIIKESVEVFCLLQLLLIAALFVAPTKGGGRHASFLIVILLVLLRVAVPLVSRERSHITHTAEATSHLEMWLAKQFPEFHYNSVGIILGAALFVFSAPTMPHRLMGIVLGTVAAVCYGQPLIHHIGPFVFFALTFFFRGMGPLRYTALVLWSSSLCNDNYVASASIAVSGVLLPVVLTATRHLPVVPQALMLHLYMWVSFFAQGNQCLLNTVDLNASFVGLPFNSVALGSVFVLSRLCNAFLFAPIAVMITYGTDRARGWRVCYLLLYITLAQSAVSSFNGYIQKSHLMFFPIFCPKFIFDFCIGMAACIGYALAALLA”, the protein production entry is given as “failed”.

As to “MTRSSNIPADATPNPHATAEQVAAARHDSKLAQVLYHDWEAENYDEKWSISYDQRCVDYARGRFDAIVPDEVIAQLPYDRALELGCGTGFFLLNLIQAGVARRGSVTDLSPGMVKVATRNGQALGLDIDGRVADAEGIPYDDDAFDLVVGHAVLHHIPDVELSLREVVRVLKPGGRFVFAGEPTTVGDGYARTLSTLTWRVVTNATKLPGLRGWRRPQGELDESSRAAALEALVDLHTFTPQDLQRIAHNAGAVEVQTATEEFTAAMLGWPLRTFECTVPPGRLGWGWARFAFTSWKTLGWVDANVWRHVVPKGWFYNVMITGVKPS”, the protein production entry is recorded as “failed”.

As for “MAKTGDPARAVTPPAIGTLDFALDRSSPVPLYYQLARQLEAAIEHGVLAPGNLLGNEVDLSVRLGLSRPTVRQAIQSLVDKGLLVRRRGVGTQVVHSQVRRPLELSSLYDDLEAAGQDPGTRVVRNEDVPATAEVAAALGVTEGTGVTVLERLRLTHGQPVAMLCNHLPAGLLELDDARLESTGLYRMMRARGITLHSARQTVGARIASREEAERLGEREGAALLTMRRIAYDDTGRPVEYGTHVYRASRYAFDFQLLVRN”, the protein production entry was “not failed”.

Take “MKTLTTPAPTKSASFREGVFDSLPIVIGYMPVAFAFGMNAVKLGFTPLEGIFLSCIIYAGASQFVITALLSAGMSIWVAALTVMAMDIRHVLYGPALRHRIVQQLPTRKTALWAFGLTDEVFAAAATRLAKDNRRWSENWMIGVSLLAWLSWVLGTVIGAVFGNGPLDNYPAVEAALSFMLPALFLSFLLASFKRKQSLVVACALGGALLGLLLSSIPAAILLGILSGCLASLVNSATPQVNA”: the protein production entry is reported as “failed”.

As for “MFKLHILFALSAPQRIAFWVWRGLFVVALAAAGIGSTRAQSYSFRDYAQSDGLQGMSITGLVEDRRGVVWVATELALHRFERDRFIPVGQDQGLDARYTRALTLDHAGRLWVATANGVFVRNGEQFVQVLDHGKRIRADAGNVIAAYRTGVAVASNGALLALTPEADGHWQVQPLPVRTADGKLREPGTTLLADGQFLWVPCDGGVCRLDARGTVVEALSEADGVPARRWRVIFRERGGRLWLRGGGTIVSRAPGGARFTEHPANPENSFNTLSGSTTMVEDARGRMLTRSDHGLVRWEGTHWTDIGADQGLQLNALVGPLLLQSNGTLWLGTRGMGLQRVLGYDSIEHLTEAQGMPPAPTWTMQRLPNGMLAVGADGGASLLKRNATHAQPWLLEDGAVLSQALNITVAPDGAAWVSYYSGAIARRDPLTGVTSRVMDLPIAGYKLLFDKAGTVWIATPRGLVRGQAAPPYALAPDPAMEGKFIGDIDFDRQGRLWAATRDGLYRRNGTTWVKIPVRGSLPSQDMLQIDFAPNGEIWLSLRDTGLWHGRLQGDGSLLLQAVDDPLISRIMPYILRHDRKGRLWVGSSQGLDLYQNGHWSRITRAEGLLWDDMSSNAFLEDDDGSIWIGSSRGLSHLRDPQRLFAAQPLRVDIAEVRRGAQIVHSGASIAWSETPLEIELSTPGVEGGANRISFRYRVQARWTTSSLSHLTYPLLPPGNYTLEVQALDAYQRSASPIARFQFVIRPPWWRSIAAIAGYLLLAVVAVIALLRWRTAKLLRRKHELEQLVAERTAELEQDKRDLEAARAELSLKATHDELTGLLNRAGILAALREMLLHAARSGRPLAVVLIDLDHFKLVNDQHGHLAGDAVLAGVGHRMDTLVRGDDRIGRYGGEELLALLPGLTPGATHRLDAMHRGICGDYPVDDGWLHVTCSIGVAWFQAGETLEQLLARADAALYRAKRSGRNRIDYDHVPLDRLGQVLPLDPQQRE”, the protein production entry is given as “failed”.

As to “MSATRHRSDGHEEIVALDALPLSAAIRRRELSCREVMQAYLAQIERFNPRVNAIVSLQAESRLLTQADERDRQLARGEWLGWMHGMPQAIKDLAATSGIPTTLGSPLFAGQVPEHDAIVVERVKSSGAIVIGKTNVPEFGLGSQTYNPLFGTTRNAYDPARIAGGSSGGAAVALALRMLPVADGSDMMGSLRNPAAYNNVYGFRPSQGRVPHGPQAELFVQQLATEGPMGRSVADLARLLATQAGYDPRCPLSLRDDPRRFADDLGRDFRGARLGWLGDYAGYLPMEEGVLELCEAALGDFAELGCDVEACLPDYPLERLWRTWLVHRQWLVQGSLGELYADPARRVRLKPEAQWEVESGLGLGAAEVYRASLDRSDWYRALARLFERYDFLLLPSAQVFPFDAETAWPRQVAGRPMDTYHRWMEVVIGPTLAGLPAISVPIGFGAAGLPMGLQIIGPAQADLAVLQLAHAHEGLTRWVSRRPPAMLEAPGGI”, the protein production entry was “failed”.

The values are drawn from a protein production outcome set (Wang et al. 2014).
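Also: failed if final PepcDB status was selected cloned or expressed and not failed if soluble or beyond.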
